{"source": "IntAct's records for PubMed 16407301", "parents": {"B1": {"name": "Mitogen-activated protein kinase kinase kinase 3 (Homo sapiens), Q99759 (parent)", "chain": "MDEQEALNSIMNDLVALQMNRRHRMPGYETMKNKDTGHSNRQSDVRIKFEHNGERRIIAFSRPVKYEDVEHKVTTVFGQPLDLHYMNNELSILLKNQDDLDKAIDILDRSSSMKSLRILLLSQDRNHNSSSPHSGVSRQVRIKASQSAGDINTIYQPPEPRSRHLSVSSQNPGRSSPPPGYVPERQQHIARQGSYTSINSEGEFIPETSEQCMLDPLSSAENSLSGSCQSLDRSADSPSFRKSRMSRAQSFPDNRQEYSDRETQLYDKGVKGGTYPRRYHVSVHHKDYSDGRRTFPRIRRHQGNLFTLVPSSRSLSTNGENMGLAVQYLDPRGRLRSADSENALSVQERNVPTKSPSAPINWRRGKLLGQGAFGRVYLCYDVDTGRELASKQVQFDPDSPETSKEVSALECEIQLLKNLQHERIVQYYGCLRDRAEKTLTIFMEYMPGGSVKDQLKAYGALTESVTRKYTRQILEGMSYLHSNMIVHRDIKGANILRDSAGNVKLGDFGASKRLQTICMSGTGMRSVTGTPYWMSPEVISGEGYGRKADVWSLGCTVVEMLTEKPPWAEYEAMAAIFKIATQPTNPQLPSHISEHGRDFLRRIFVEARQRPSAEELLTHHFAQLMY"}}}
{"variants_of": "B1", "details": "with mk03_human MAPK3, P27361"}
{"variant": "K391M", "effect of a mutation on the interaction": "disrupting interaction"}
{"variant": "S526A", "effect of a mutation on the interaction": "disrupting interaction"}
{"variant": "T530A", "effect of a mutation on the interaction": "disrupting interaction"}
